Reference: paper PMC3961180, “The Kil Peptide of Bacteriophage λ Blocks Escherichia coli Cytokinesis via ZipA-Dependent Inhibition of FtsZ Assembly” (PLoS Genetics, 2014)

Target: the molecule itself
Test: co-sedimentation; FtsZ 5 µM, His6-FLAG-Kil 10 µM, His6-tagged ZipAC domains 5 µM, GTP 1 mM in polymerization buffer; 1 mM CaCl2 for calcium-induced bundling; TLA 100.3 rotor at 70,000 rpm; supernatant and pellet on Coomassie-stained gels

B1: E. coli FtsZ (natural protein, UniProt P0A9A6 1-383, looked up)
chain: MFEPMELTNDAVIKVIGVGGGGGNAVEHMVRERIEGVEFFAVNTDAQALRKTAVGQTIQIGSGITKGLGAGANPEVGRNAADEDRDALRAALEGADMVFIAAGMGGGTGTGAAPVVAEVAKDLGILTVAVVTKPFNFEGKKRMAFAEQGITELSKHVDSLITIPNDKLLKVLGRGISLLDAFGAANDVLKGAVQGIAELITRPGLMNVDFADVRTVMSEMGYAMMGSGVASGEDRAEEAAEMAISSPLLEDIDLSGARGVLVNITAGFDLRLDEFETVGNTIRAFASDNATVVIGTSLDPDMNDELRVTVVATGIGMDKRPEITLVTNKQVQQPVMDRYQQHGMAPLTQEQKPVAKVVNDNAPQTAKEPDYLDIPAFLRKQAD
notes: cell division protein FtsZ, E. coli; expressed from pET11a-ftsZ (from H. Erickson); No tag is named for this construct; also called FtsZWT; source: E. coli BL21(DE3) pET11a-ftsZ (WM971), purified (successive 20% and 30% ammonium sulfate cuts)
B1: binds.
